Measurements taken from article PMC10765524.

Target: PP2A:B55 holoenzyme (PP2Aa, B55, PP2Ac) (UniProt P30153)
Sequence (P30153 9-589, chain 1 of 3): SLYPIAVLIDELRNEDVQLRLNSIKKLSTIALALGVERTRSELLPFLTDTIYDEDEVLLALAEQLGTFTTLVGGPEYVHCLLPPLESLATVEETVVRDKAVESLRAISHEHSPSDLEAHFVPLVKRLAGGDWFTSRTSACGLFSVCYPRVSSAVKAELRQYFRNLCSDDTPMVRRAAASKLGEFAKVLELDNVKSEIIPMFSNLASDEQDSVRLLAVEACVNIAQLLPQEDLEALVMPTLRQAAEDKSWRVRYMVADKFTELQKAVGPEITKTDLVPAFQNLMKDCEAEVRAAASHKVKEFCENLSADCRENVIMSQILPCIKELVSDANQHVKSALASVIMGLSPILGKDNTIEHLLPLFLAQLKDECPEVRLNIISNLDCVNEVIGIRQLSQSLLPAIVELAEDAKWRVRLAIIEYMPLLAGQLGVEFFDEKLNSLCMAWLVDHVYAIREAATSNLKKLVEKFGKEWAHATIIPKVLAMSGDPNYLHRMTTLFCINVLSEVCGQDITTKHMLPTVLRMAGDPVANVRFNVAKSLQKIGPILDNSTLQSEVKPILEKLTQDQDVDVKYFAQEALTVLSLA
Sequence (P63151 whole entry, chain 2 of 3, further chain): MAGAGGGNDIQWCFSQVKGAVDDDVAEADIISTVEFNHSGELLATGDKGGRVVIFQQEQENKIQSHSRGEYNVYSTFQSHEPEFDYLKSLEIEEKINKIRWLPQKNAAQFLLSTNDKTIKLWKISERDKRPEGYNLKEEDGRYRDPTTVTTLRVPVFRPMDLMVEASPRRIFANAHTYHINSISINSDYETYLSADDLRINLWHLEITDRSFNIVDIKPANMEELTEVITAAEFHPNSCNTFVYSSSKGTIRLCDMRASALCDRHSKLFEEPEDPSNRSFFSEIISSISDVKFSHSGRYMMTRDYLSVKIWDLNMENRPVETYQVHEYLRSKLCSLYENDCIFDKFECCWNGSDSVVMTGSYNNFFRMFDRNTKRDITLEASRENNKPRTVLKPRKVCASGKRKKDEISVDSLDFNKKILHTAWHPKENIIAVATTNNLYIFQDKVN
Sequence (P67775 whole entry, chain 3 of 3, further chain): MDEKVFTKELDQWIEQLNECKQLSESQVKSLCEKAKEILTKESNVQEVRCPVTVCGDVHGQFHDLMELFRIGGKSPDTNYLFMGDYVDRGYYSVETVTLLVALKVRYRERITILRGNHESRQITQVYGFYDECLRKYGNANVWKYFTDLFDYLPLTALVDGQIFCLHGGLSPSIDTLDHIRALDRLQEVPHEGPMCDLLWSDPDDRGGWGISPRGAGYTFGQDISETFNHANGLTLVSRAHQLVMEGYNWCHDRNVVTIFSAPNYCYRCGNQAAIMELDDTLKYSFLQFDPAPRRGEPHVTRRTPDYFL

inhibition of PP2A:B55 phosphatase activity (DiFMUP), against wild type | Substance
11 fold | FAM122AID R105L (domain or fragment)
2 fold | FAM122AID E104A/S120C (domain or fragment)
6 fold | FAM122AID V107G (domain or fragment)
